Test results as given in paper PMC2121072.

Target: full-length GST-hDlg fusion protein (human) (UniProt Q12959)
Assay: pull-down

full-length GST-hDlg fusion protein (human), sequence (Q12959 whole entry, the tested form may be a part): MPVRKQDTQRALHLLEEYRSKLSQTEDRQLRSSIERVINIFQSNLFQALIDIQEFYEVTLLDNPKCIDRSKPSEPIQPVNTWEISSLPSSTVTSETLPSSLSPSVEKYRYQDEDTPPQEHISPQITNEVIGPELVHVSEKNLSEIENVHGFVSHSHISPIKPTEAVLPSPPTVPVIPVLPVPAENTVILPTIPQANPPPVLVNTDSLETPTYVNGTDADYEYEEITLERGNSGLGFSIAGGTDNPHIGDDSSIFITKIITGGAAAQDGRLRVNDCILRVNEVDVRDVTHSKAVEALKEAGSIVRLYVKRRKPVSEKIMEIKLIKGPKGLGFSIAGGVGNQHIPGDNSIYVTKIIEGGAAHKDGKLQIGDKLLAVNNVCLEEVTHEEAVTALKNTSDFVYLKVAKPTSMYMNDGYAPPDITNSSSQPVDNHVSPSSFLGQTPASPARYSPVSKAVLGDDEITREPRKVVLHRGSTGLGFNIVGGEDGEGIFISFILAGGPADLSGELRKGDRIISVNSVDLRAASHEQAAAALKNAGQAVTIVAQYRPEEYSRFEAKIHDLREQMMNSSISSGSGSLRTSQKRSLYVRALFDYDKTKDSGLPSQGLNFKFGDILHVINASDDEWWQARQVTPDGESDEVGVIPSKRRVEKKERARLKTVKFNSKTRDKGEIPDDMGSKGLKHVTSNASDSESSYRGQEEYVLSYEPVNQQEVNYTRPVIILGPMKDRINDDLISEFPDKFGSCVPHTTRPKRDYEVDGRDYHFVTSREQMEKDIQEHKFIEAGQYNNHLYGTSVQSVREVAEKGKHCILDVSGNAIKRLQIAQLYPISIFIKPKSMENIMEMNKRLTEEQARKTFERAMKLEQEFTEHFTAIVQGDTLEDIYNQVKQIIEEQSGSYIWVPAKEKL

“125I-labeled 30-kD amino-terminal domain of protein 4.1 (domain or fragment)” showed a Kd of 5.3 nM.
